Measurements as given in publication PMC10418163 (bioRxiv, 2024).

How the values were obtained:
[1] = molecular target: Pseudomonas aeruginosa PhuR refolded from inclusion bodies (Pseudomonas aeruginosa PAO1, UniProt Q9HV88); experiment: SEC
[2] = molecular target: Pseudomonas aeruginosa PhuR, natively expressed (purified from E. coli outer membranes, heme-bound) (Pseudomonas aeruginosa PAO1, UniProt Q9HV88); experiment: ELISA

B1: synthetic antibody sAB11 (Fab, V domains shown)
VH: EVQLVESGGGLVQPGGSLRLSCAASGFNFYYYSIHWVRQAPGKGLEWVASISPYYGSTYYADSVKGRFTISADTSKNTAYLQMNSLRAEDTAVYYCARSMNWYYSSPYGMSQGMDYWGQGTLVTVSS
VL: DIQMTQSPSSLSASVGDRVTITCRASQSVSSAVAWYQQKPGKAPKLLIYSASSLYSGVPSRFSGSRSGTDFTLTISSLQPEDFATYYCQQGSSSPLTFGQGTKVEIK
binding result [1]: binds
EC50 [2]: ~9 nM
